# Measurements published in patent publication US20070065429A1, “Nogo-receptor antagonists for the treatment of conditions involving amyloid plaques” (Biogen Idec MA Inc., priority 2003, published 2007).
# Assays:
# human NgR1 [1] = biological target: T1, human NgR1 (Homo sapiens, UniProt Q9BZR6); assay: Fluo-Aβ42 binding to SKNMC cells expressing human NgR-1; settings: 2 h at 4° C.
# T1 construct: expressed in transfected cells; host or cells: SKNMC cells
# T1 sequence (Q9BZR6 27-447): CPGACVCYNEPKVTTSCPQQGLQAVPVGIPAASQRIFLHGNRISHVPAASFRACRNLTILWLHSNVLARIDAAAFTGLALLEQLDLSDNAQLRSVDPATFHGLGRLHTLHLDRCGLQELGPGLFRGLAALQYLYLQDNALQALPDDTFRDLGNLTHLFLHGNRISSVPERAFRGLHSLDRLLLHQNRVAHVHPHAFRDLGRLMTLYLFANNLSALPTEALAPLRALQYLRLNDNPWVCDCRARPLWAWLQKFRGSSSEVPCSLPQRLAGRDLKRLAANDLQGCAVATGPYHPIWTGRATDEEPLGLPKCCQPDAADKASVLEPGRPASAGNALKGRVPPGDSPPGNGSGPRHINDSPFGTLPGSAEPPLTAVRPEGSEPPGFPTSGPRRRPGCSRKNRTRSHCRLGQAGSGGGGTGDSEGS
# sNgR310 = biological target: T2, sNgR310 (Rattus norvegicus, UniProt Q99M75, A303T/C287S/C43R/E284G/T53A); assay: Aβ42 effect on Biotin-Aβ40 binding to immobilized sNgR310; settings: dose-dependent, streptavidin HRP
# T2 sequence (Q99M75 27-310 C43R/T53A/E284G/C287S/A303T): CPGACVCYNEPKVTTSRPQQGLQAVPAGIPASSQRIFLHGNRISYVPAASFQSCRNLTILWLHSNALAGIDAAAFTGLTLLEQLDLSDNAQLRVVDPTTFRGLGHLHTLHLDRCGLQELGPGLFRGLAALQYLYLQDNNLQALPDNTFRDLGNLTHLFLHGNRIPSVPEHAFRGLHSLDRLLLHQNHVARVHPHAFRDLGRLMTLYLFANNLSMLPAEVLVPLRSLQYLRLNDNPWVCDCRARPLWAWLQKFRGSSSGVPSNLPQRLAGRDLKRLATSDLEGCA
# Description: We examined whether the interaction between NgR and Aβ peptide has a role in aggregate formation. sNgR310 was immobilized on microtiter plates and Biotin-Aβ40 was applied along with Aβ42 peptide.
# human NgR1 [2] = biological target: T1, human NgR1; assay: Aβ42 effect on Biotin-Aβ40 binding to SKNMC cells expressing human NGR1; settings: SKNMC cells expressing human NGR1, dose-dependent
# NgR = biological target: T3, NgR (Homo sapiens, UniProt Q9BZR6); assay: AP-Aβ(1-28) fusion protein binding to NgR-expressing COS cells; settings: not to vector-transfected COS cells
# T3 construct: expressed in transfected cells; host or cells: COS cells
# T3 sequence (Q9BZR6 27-473): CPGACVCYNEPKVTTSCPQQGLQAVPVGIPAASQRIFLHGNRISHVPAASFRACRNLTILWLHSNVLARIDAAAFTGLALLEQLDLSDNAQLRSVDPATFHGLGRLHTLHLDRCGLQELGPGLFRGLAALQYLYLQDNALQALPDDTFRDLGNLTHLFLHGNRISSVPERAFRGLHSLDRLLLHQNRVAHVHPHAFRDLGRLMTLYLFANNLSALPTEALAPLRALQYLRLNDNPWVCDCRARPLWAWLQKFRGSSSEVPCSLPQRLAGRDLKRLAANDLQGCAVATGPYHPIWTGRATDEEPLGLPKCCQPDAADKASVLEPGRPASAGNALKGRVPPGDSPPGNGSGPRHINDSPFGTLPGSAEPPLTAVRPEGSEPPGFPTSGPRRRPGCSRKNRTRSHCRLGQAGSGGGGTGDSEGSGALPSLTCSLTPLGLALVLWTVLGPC
# Description: We then investigated whether the Aβ region of APP is involved in its interaction with NgR—including whether the fibrillogenic Aβ42-3 peptide binds NgR. We created two fusion protein constructs containing alkaline phosphatase (AP) and the hydrophilic region of Aβ (amino acids 1-28) by fusing the coding sequence in frame with the signal sequence-6×His-placental alkaline phosphatase (AP) sequence of the vector pAP-6 (Nakamura et al., Neuron 2: 1093-1100, 1988). The AP-Aβ and Aβ-AP proteins both bound to NgR-expressing COS cells but not to vector-transfected COS cells. This binding was saturable with an apparent Kd of 60 nM. The interaction also was detected using purified Biotin-Aβ(1-40) in an ELISA-type assay with immobilized NgR.
# NgR3 = biological target: T4, NgR3 (Homo sapiens, UniProt Q86UN2); assay: Aβ-AP binding specificity, NgR3
# T4 sequence (Q86UN2 25-420): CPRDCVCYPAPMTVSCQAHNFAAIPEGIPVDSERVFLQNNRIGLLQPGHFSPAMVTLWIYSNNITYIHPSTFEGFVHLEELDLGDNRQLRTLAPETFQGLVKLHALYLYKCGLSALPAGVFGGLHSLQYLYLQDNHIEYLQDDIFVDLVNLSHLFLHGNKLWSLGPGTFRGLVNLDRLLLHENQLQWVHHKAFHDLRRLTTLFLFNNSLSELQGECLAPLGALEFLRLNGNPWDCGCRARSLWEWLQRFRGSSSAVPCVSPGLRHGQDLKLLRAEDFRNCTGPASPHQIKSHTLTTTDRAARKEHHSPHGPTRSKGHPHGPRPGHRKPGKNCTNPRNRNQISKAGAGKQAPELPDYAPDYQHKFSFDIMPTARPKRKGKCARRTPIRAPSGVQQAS
# Description: (§1) The specificity and selectivity of the Aβ(1-28) interaction with NgR was probed in several ways. The interaction was specific for NgR1 because neither NgR2 or NgR3—which share sequence similarity with NgR—bound Aβ-AP. Further, we observed species specificity: human NgR binds human AB to a greater extent than mouse NgR binds human AB or human NgR binds mouse AB or mouse NgR binds mouse Aβ.
# NgR2 = biological target: T5, NgR2 (Homo sapiens, UniProt Q86UN3); assay: Aβ-AP binding specificity, NgR2
# T5 sequence (Q86UN3 47-390): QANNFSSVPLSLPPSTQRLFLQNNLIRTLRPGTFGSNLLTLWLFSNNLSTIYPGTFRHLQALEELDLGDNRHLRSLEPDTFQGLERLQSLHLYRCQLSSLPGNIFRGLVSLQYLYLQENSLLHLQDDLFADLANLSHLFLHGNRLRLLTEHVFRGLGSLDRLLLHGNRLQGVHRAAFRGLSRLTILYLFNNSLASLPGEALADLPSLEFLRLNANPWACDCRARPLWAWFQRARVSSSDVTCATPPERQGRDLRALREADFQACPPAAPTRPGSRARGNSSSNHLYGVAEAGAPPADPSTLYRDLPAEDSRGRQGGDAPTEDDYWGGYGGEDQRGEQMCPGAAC
# Description: as §1
# sNgR310-Fc = biological target: T6, sNgR310-Fc (Rattus norvegicus, UniProt Q99M75, A303T/C287S/C43R/E284G/T53A); assay: Competition of free Aβ with NgR ligands on sNgR310-Fc coated wells; format: binding; settings: competition assay
# T6 construct: Fc portion of IgG (rat)
# T6 sequence (Q99M75 27-310 C43R/T53A/E284G/C287S/A303T): T2 sequence (Q99M75 27-310 C43R/T53A/E284G/C287S/A303T)
# Experimental: We analyzed whether Aβ (1-28) binding competed for NgR binding with other known ligands for NgR by allowing 250 nM soluble AP-Aβ(1-28) or AP-Nogo (1-33) to bind to wells coated with purified sNgR310-Fc in the presence of various concentrations of competing free Aβ. […] We observed that the Aβ peptides bind to both sNgR310-Fc and sNgR344-Fc. […] However, Aβ(1-28) displaced Aβ-AP binding but not AP-Nogo-66 (1-33) or AP-OMgp binding in competition assays. The Aβ peptide may begin to displace AP-MAG very slightly at high concentrations in our experiments. Thus, the Aβ binding site on NgR appears largely distinct from that for the myelin ligands NogoA, OMgp and MAG. Consistent with this, the presence of Aβ had little effect on myelin or Nogo-66 inhibition of neurite outgrowth.
substance,measurement,setting,value
Fluo-Aβ42: labelled fibrillogenic Aβ42 peptide,binding to SKNMC cells expressing human NgR-1,human NgR1 [1],binds
Aβ42 peptide: fibrillogenic Aβ42 peptide,effect on binding of Biotin-Aβ40 peptide to immobilized sNgR310,sNgR310,enhanced
same,effect on binding of Biotin-Aβ40 peptide to cells,human NgR1 [2],enhanced
Aβ-AP: fusion protein of the hydrophilic region of Aβ (amino acids 1-28) and alkaline phosphatase (AP),binding to NgR-expressing COS cells,NgR,bound
same,binding to NgR3,NgR3,neither
same,binding to NgR2,NgR2,neither
"Aβ(1-28): free Aβ peptide, amino acids 1-28, used as competitor",displacement of AP-Nogo-66 (1-33) binding,sNgR310-Fc,not
same,displacement of AP-OMgp binding,sNgR310-Fc,not
same,displacement of Aβ-AP binding,sNgR310-Fc,displaced
